Values of other authors as cited in PMC4741374.

How the values were obtained:
GM-CSFR (Homo sapiens) = GM-CSFR (Homo sapiens) (UniProt P15509)
G-CSFR (Homo sapiens) = G-CSFR (Homo sapiens) (UniProt Q99062)
Sequence of UniProt Q99062 (Q99062 25-627): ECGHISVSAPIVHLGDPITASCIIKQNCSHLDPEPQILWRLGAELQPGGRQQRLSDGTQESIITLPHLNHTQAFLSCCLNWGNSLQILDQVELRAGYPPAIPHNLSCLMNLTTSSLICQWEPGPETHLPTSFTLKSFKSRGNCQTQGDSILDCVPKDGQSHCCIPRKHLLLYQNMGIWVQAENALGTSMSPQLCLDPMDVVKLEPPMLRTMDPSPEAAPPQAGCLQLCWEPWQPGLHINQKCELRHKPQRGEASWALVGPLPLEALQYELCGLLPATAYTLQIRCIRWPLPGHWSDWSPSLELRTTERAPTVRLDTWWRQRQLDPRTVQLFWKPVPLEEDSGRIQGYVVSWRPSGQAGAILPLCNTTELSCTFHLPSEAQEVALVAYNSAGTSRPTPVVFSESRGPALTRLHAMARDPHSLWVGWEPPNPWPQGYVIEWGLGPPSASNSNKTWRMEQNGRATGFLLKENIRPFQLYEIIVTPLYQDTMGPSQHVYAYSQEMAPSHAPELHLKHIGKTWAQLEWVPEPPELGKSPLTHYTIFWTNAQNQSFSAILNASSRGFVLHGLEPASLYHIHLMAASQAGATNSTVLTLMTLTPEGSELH

Sequence of UniProt P15509 (P15509 23-320, chain 1 of 2): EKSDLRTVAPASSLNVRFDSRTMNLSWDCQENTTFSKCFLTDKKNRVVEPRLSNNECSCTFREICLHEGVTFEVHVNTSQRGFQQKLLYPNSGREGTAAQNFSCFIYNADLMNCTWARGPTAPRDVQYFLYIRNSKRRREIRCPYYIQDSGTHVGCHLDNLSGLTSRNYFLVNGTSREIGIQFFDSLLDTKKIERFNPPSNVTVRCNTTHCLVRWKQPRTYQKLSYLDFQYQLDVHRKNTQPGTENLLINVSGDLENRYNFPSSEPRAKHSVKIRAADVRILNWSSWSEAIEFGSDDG
Sequence of UniProt P15509 (P32927 17-443, chain 2 of 2, further chain): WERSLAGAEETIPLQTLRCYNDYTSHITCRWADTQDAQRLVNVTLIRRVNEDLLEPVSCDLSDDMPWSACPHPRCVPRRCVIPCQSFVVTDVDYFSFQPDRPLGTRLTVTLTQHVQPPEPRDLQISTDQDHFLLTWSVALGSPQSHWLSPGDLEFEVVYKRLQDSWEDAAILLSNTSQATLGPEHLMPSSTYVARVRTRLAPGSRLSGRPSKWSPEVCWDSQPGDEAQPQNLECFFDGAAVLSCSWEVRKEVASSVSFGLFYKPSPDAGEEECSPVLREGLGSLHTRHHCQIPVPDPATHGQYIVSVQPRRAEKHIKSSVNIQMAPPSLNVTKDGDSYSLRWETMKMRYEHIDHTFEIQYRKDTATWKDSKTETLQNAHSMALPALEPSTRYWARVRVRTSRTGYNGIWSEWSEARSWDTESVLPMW

Kd (GM-CSFR (Homo sapiens))	Kd (G-CSFR (Homo sapiens))	Substance
0.1 nM		GM-CSF (from UniProt P04141)
	0.5 nM	G-CSF (from UniProt P09919)
